Protein stability index data for ten sequences are collected here from the supplement of paper PMC10724198.

For series [1], the system named is Saccharomyces cerevisiae. The series can be described thus: protein stability index of tFT-peptide fusion (C-terminal peptide) (PSI (0-1 scale)); higher = more stable (slower turnover). The conditions noted are these: genetic background: wild type; temperature: 30 C.
Series [2] has as its system Saccharomyces cerevisiae. The series is described as above. How it is done:
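MPS profiling in S. cerevisiae of the tFT-X12 degron library: putative degron peptides plus stable controls, 12 aa, fused to the C-terminus of a sfGFP-mCherry timer. Cells are FACS-sorted into 8 mCherry/sfGFP bins and deep-sequenced. PSI runs from 0 (unstable) to 1 (stable). Backgrounds are wild type, das1Δ and doa10Δ at 30 °C, and wild type, das1Δ, cdc34-1 and cdc53-1 at 37 °C; 2-3 technical replicates each.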

The mark [3] stands for this setting: genetic background: cdc34-1, temperature: 37 C.
[4] abbreviates: genetic background: cdc53-1, temperature: 37 C.
[5] abbreviates: genetic background: das1 deletion, temperature: 30 C.
Setting [6] is: genetic background: das1 deletion, temperature: 37 C.
[7] abbreviates: genetic background: doa10 deletion, temperature: 30 C.
The mark [8] stands for this setting: genetic background: wild type, temperature: 30 C.
The mark [9] stands for this setting: genetic background: wild type, temperature: 37 C.

± gives the standard deviation of the averaged measurements.
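Note: PSI is a weighted mean of sequencing reads over stability bins, variants kept only with over 10 reads, mCherry proximal and sfGFP distal, peptide attached via GGGS linker.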

As for FGPRLLRVMRLL, the protein stability index in the series with Saccharomyces cerevisiae [1] was determined as 0.22 ± 0.04; with Saccharomyces cerevisiae [2] (setting [3]) it was 0.562 ± 0.017; with Saccharomyces cerevisiae [2] (setting [4]), 0.712 ± 0.018; with Saccharomyces cerevisiae [2] (setting [5]), 0.639 ± 0.018; in the series with Saccharomyces cerevisiae [2] (setting [6]), 0.7306 ± 0.0047; in the series on Saccharomyces cerevisiae [2] (setting [7]) it was 0.128 ± 0.017. Besides, the protein stability index stood at 0.157 ± 0.044 in the series with Saccharomyces cerevisiae [2] (setting [8]) and 0.207 ± 0.061 with Saccharomyces cerevisiae [2] (setting [9]).

As to FGVLFFVFVFVC, the protein stability index in the series with Saccharomyces cerevisiae [1] is 0.177 ± 0.024; in the series with Saccharomyces cerevisiae [2] (setting [3]), 0.149 ± 0.015; with Saccharomyces cerevisiae [2] (setting [4]), 0.243 ± 0.051; in the series with Saccharomyces cerevisiae [2] (setting [5]) it was 0.193 ± 0.02; in the series with Saccharomyces cerevisiae [2] (setting [6]), 0.322 ± 0.011; in the series with Saccharomyces cerevisiae [2] (setting [7]), 0.112 ± 0.021. Besides, the protein stability index in the series on Saccharomyces cerevisiae [2] (setting [8]) was 0.129 ± 0.022; with Saccharomyces cerevisiae [2] (setting [9]), 0.203 ± 0.03.

Consider FGVLLVWWYGLF, for which the protein stability index with Saccharomyces cerevisiae [1] turned out to be 0.289 ± 0.039; in the series with Saccharomyces cerevisiae [2] (setting [3]), 0.236 ± 0.016; in the series on Saccharomyces cerevisiae [2] (setting [4]) it was 0.367 ± 0.027; in the series on Saccharomyces cerevisiae [2] (setting [5]), 0.253 ± 0.05; in the series with Saccharomyces cerevisiae [2] (setting [6]) it was 0.4335 ± 0.0032; in the series on Saccharomyces cerevisiae [2] (setting [7]) it was 0.1894 ± 0.0014. The values for the protein stability index in the series with Saccharomyces cerevisiae [2] (setting [8]) and in the series on Saccharomyces cerevisiae [2] (setting [9]) were 0.204 ± 0.016 and 0.314 ± 0.0076, respectively.

As for FGVSLFLPLSVV, the protein stability index was found to be 0.407 ± 0.017 with Saccharomyces cerevisiae [1]; 0.4023 ± 0.0021 in the series with Saccharomyces cerevisiae [2] (setting [3]); 0.415 ± 0.006 in the series on Saccharomyces cerevisiae [2] (setting [4]); 0.32 ± 0.026 in the series on Saccharomyces cerevisiae [2] (setting [5]); 0.46 ± 0.011 in the series on Saccharomyces cerevisiae [2] (setting [6]); 0.281 ± 0.0048 in the series on Saccharomyces cerevisiae [2] (setting [7]). For the same sequence, the protein stability index with Saccharomyces cerevisiae [2] (setting [8]) stood at 0.308 ± 0.023; with Saccharomyces cerevisiae [2] (setting [9]), 0.4184 ± 0.0035.

As to FIFYYTVLLLCR, the protein stability index came out at 0.181 ± 0.014 with Saccharomyces cerevisiae [1]; 0.0366 ± 0.0015 in the series with Saccharomyces cerevisiae [2] (setting [3]); 0.0671 ± 0.0072 in the series on Saccharomyces cerevisiae [2] (setting [4]); 0.131 ± 0.024 with Saccharomyces cerevisiae [2] (setting [5]); 0.171 ± 0.0048 in the series with Saccharomyces cerevisiae [2] (setting [6]); 0.13 ± 0.0087 in the series on Saccharomyces cerevisiae [2] (setting [7]). In addition, the figures for the protein stability index in the series on Saccharomyces cerevisiae [2] (setting [8]) and with Saccharomyces cerevisiae [2] (setting [9]) were 0.115 ± 0.019 and 0.1312 ± 0.0012, respectively.

Turning to FIICAASWFFLG, the protein stability index in the series on Saccharomyces cerevisiae [1] came out at 0.224 ± 0.025; in the series on Saccharomyces cerevisiae [2] (setting [3]), 0.456 ± 0.025; in the series on Saccharomyces cerevisiae [2] (setting [4]) it was 0.624 ± 0.032; in the series with Saccharomyces cerevisiae [2] (setting [5]), 0.474 ± 0.036; with Saccharomyces cerevisiae [2] (setting [6]), 0.62 ± 0.02; with Saccharomyces cerevisiae [2] (setting [7]), 0.109 ± 0.014. The protein stability index was 0.127 ± 0.016 with Saccharomyces cerevisiae [2] (setting [8]) and 0.225 ± 0.079 in the series with Saccharomyces cerevisiae [2] (setting [9]).

Take FILATGKGRWVV: the protein stability index in the series on Saccharomyces cerevisiae [1] worked out at 0.333 ± 0.1; with Saccharomyces cerevisiae [2] (setting [3]) it was 0.686 ± 0.044; with Saccharomyces cerevisiae [2] (setting [4]), 0.776 ± 0.017; in the series on Saccharomyces cerevisiae [2] (setting [5]) it was 0.636 ± 0.0087; in the series with Saccharomyces cerevisiae [2] (setting [6]), 0.7432 ± 0.0033; with Saccharomyces cerevisiae [2] (setting [7]) it was 0.266 ± 0.0031. Also, the values for the protein stability index in the series with Saccharomyces cerevisiae [2] (setting [8]) and in the series with Saccharomyces cerevisiae [2] (setting [9]) were 0.306 ± 0.029 and 0.532 ± 0.024, respectively.

For the sequence FILSLSFVFSRP, the protein stability index in the series on Saccharomyces cerevisiae [1] amounted to 0.405 ± 0.073; with Saccharomyces cerevisiae [2] (setting [3]), 0.415 ± 0.037; in the series on Saccharomyces cerevisiae [2] (setting [4]) it was 0.501 ± 0.011; with Saccharomyces cerevisiae [2] (setting [5]), 0.425 ± 0.027; in the series with Saccharomyces cerevisiae [2] (setting [6]) it was 0.462 ± 0.012; with Saccharomyces cerevisiae [2] (setting [7]), 0.452 ± 0.039. In addition, the protein stability index in the series with Saccharomyces cerevisiae [2] (setting [8]) is 0.441 ± 0.046; in the series on Saccharomyces cerevisiae [2] (setting [9]) it was 0.441 ± 0.026.

In the case of FIRLTFLRLSCI, the protein stability index was 0.255 ± 0.022 in the series on Saccharomyces cerevisiae [1]; 0.546 ± 0.021 in the series with Saccharomyces cerevisiae [2] (setting [3]); 0.623 ± 0.03 in the series with Saccharomyces cerevisiae [2] (setting [4]); 0.51 ± 0.034 in the series on Saccharomyces cerevisiae [2] (setting [5]); 0.638 ± 0.031 in the series on Saccharomyces cerevisiae [2] (setting [6]); 0.183 ± 0.015 with Saccharomyces cerevisiae [2] (setting [7]). Further, the protein stability index was determined as 0.199 ± 0.0096 with Saccharomyces cerevisiae [2] (setting [8]) and 0.391 ± 0.0049 in the series with Saccharomyces cerevisiae [2] (setting [9]).

Turning to FLASLCFFPLLC, the protein stability index in the series with Saccharomyces cerevisiae [1] turned out to be 0.456 ± 0.014; with Saccharomyces cerevisiae [2] (setting [3]) it was 0.388 ± 0.041; in the series on Saccharomyces cerevisiae [2] (setting [4]), 0.413 ± 0.031; with Saccharomyces cerevisiae [2] (setting [5]), 0.42 ± 0.027; with Saccharomyces cerevisiae [2] (setting [6]), 0.5574 ± 0.0039; in the series with Saccharomyces cerevisiae [2] (setting [7]), 0.496 ± 0.024. The values for the protein stability index with Saccharomyces cerevisiae [2] (setting [8]) and with Saccharomyces cerevisiae [2] (setting [9]) were 0.372 ± 0.02 and 0.5038 ± 0.0034, respectively.
